Results: PMC7839251

Target: N-terminal fluorescein labeled ubiquitin E3 ligase WWP2 (FAM-WWP2)
Assay: MST

Kd: 9.6 µM
Substance: ubiquitin E2 conjugating enzyme UbcH5c (from UniProt P61077 1-147)
